Data as given in patent US9803013B2, “Biological materials and uses thereof” (BioInvent International AB, priority 2005, dated 2017).

Columns and labels:
NCI-H929 = assay: SCID/xenograft MM model, subcutaneous; format: in vivo, mouse; settings: NCI-H929 (ICAM-1+), 2 mg/kg twice weekly from one day after tumor cell injection
Description: (§1) Since high expression of the BI-505 epitope in human MM was found, BI-505 was screened for in vivo anti-myeloma activity using SCID/xenograft models comprising four well-characterized MM cell-lines. […] Twice weekly dosing with 2 mg/kg of BI-505 starting one day after tumor cell injection reduced myeloma tumor growth in mice xenografted with ICAM-1-expressing cell lines EJM, RPMI-8226, and NCI-H929 by 98%, 96%, and 99%, respectively (FIGS. 17A and B).
(§2) All studies were conducted in accordance with guidelines of the Lund University Hospital, Sweden or University of Utah, Salt Lake City, USA following approval from the local ethical committee for animal care and use. BI-505 efficacy and potency was examined in subcutaneous and disseminated, prophylactic and therapeutic, experimental MM models comprising myeloma cell lines RPMI-8226, U266, EJM and OPM-2. The in vivo efficacy of BI-505 was compared to clinically approved drugs dexamethasone, melphalan, bortezomib and revlimid used at clinically relevant doses in therapeutic disseminated models comprising RPMI-8226 or primary patient myeloma cells, the latter following injection of patient cells in implanted of human fetal bone in SCID mice. For subcutaneous grafting, 1-5×10^6 tumor cells (RPMI-8226, NCI-H929, EJM, OPM-2, ARH-77, or Daudi) were subcutaneously injected at a volume of 100 μl into the left flank of anesthetized mice as described in the Supplemental Information. […] Treatment with saline, isotype control IgG, bortezomib, lenalidomide, dexamethasone, or BI-505 started on day 5 (RPMI-8226). Treatment with melphalan started on day 10. BI-505 or isotype IgG mAb was administered i.v. at 2 mg/kg/inj twice weekly for 8 weeks; bortezomib at 1 mg/kg/inj once weekly for 8 weeks; lenalidomide orally at 2 mg/kg/inj for 2 cycles consisting of 5 days of treatment and 2 days of wash out; melphalan i.v. at 3 mg/kg/inj once weekly for 8 weeks; and dexamethasone at 6 mg/kg/inj three times weekly for 2 weeks. […] The role of macrophages and NK cells for BI-505 in vivo antitumor activity was assessed using anti-asialo antibody treatment, clodronate liposome treatment or NK-cell deficient mice. […]
(§3) Treatment with antibodies by intraperitoneal injection started either 1 day after cell inoculation (prophylactic model) or when tumors reached approximately 100 mm^3 (established model). […] Macrophage and NK cell depletion was assessed upon termination of tumor bearing mice exposed to effector cell depleting agents (see above), spleens were removed and splenocytes isolated by mincing through a cell strainer (70 μm nylon mesh, BD Falcon 352350), erythrocytes were removed by lysis according to manufacturer (BD Pharm Lyse 555899, BD Biosciences).

EJM = assay: SCID/xenograft MM model, subcutaneous; format: in vivo, mouse; settings: EJM (ICAM-1+), 2 mg/kg twice weekly from one day after tumor cell injection
Description: as §1, §2, §3

RPMI-8226 = assay: SCID/xenograft MM model, subcutaneous; format: in vivo, mouse; settings: RPMI-8226 (ICAM-1+), 2 mg/kg twice weekly from one day after tumor cell injection
Description: as §1, §2, §3

OPM-2 = assay: SCID/xenograft MM model, subcutaneous; format: in vivo, mouse; settings: ICAM-1-negative OPM-2, 2 mg/kg twice weekly
Description: as §1, §2, §3

ICAM-1 = ICAM-1 (Homo sapiens, UniProt P05362); assay: Radioiodinated IgG B11 binding to Ramos cells, Rosenthal-Scatchard analysis; design: endogenous in cells; host or cells: Ramos B lymphoma cells
Description: Iodination of 1 mg/ml of IgG1 B1 or IgG1 B11 proteins with [^125I] NaI was performed in PBS for 10 min using Iodogen pre-coated iodination tubes (Pierce). Free [^125I] NaI was removed by desalting on PD-10 columns (Amersham Biosciences), yielding specific radioactivities in the range of 1000-1600 cpm per ng protein. [^125I] IgG1 B1 and [^125I] IgG1 B11 was used for determination of antibody affinities.
Radioiodinated IgG B1 or IgG B11 was incubated with B lymphoma cells in DPBS-B-hIgG (DPBS-B containing 0.2 mg/ml human IgG) for 2 h on ice with intermittent mixing. Non-specific binding was determined in the presence of 0.2 mg/ml unlabelled IgG B1 or IgG B11 protein, as appropriate. […]
Cells were loaded on top 40% v/v Ficoll/DPBS-B cushions in individual tubes and were centrifuged at 400×g for 6 min at 4° C. […] Cell pellets and cell supernatants were isolated and analysed separately for ^125I-IgG protein content in a gamma counter, following cutting of the tubes in half.
Antibody affinity constants (Kd values) and epitope numbers per cell were determined from Scatchard plot analysis according to Rosenthal et al. (Anal. Biochem. (1967) 20:525-532); Bylund and Yamamura (Methods in Neurotransmitter Analysed, New York: Raven Press Ltd., 1990); and Marquardt (J. Soc. Indust. Appl. Math. (1963) 11:431-441), as previously described (Brix et al., J. Clin. Invest. (1998) 102:283-293). […]

Sequence of ICAM-1 (P05362 28-532): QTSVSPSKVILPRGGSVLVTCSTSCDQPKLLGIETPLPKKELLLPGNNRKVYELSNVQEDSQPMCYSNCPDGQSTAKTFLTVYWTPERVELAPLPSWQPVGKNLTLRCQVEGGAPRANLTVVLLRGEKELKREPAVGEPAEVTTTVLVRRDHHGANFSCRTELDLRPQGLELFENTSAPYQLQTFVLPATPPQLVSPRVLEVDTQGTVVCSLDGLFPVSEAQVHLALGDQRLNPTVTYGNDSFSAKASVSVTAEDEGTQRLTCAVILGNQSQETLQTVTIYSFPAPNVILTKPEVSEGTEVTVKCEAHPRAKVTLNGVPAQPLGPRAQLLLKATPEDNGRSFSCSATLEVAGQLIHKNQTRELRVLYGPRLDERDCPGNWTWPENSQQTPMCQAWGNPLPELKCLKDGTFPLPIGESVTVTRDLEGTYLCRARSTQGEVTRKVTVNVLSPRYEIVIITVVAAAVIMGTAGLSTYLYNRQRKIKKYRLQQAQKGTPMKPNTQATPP

B1: B11: fully human IgG1 antibody specific for ICAM-1; VH and VL sequences of FIG. 10 (SEQ ID NOs. 6 and 8) (antibody, listed as Homo sapiens, V domains shown)
VH: EVQLLESGGGLVQPGGSLRLSCAASGFTFSNAWMSWVRQAPGKGLEWVAFIWYDGSNKYYADSVKGRFTISRDNSKNTLYLQMNSLRAEDTAVYYCARYSGWYFDYWGQGTLVTVSS
VL: QSVLTQPPSASGTPGQRVTISCTGSSSNIGAGYDVHWYQQLPGTAPKLLIYDNNNRPSGVPDRFSGSKSGTSASLAISGLRSEDEADYYCQSYDSSLSAWLFGGGTKLTVLG
NCI-H929
  reduction of myeloma tumor growth: 99%
EJM
  reduction of myeloma tumor growth: 98%
RPMI-8226
  reduction of myeloma tumor growth: 96%
OPM-2
  tumor growth: did not affect tumor growth
ICAM-1; Rosenthal-Scatchard plot
  functional binding sites (receptors) per cell: 47,400
ICAM-1; radioiodinated IgG
  concentration at which saturable specific binding is reached: ~1 nM
